According to US20090018093:

System: Immunoglobulin E (IgE) (Homo sapiens), P01854-1
Assay: FP_none
Conditions: 2'-OMe G2 and all C,U, rest 2'-deoxy, 3' idT [2'-OMe at 2,3,4,5,11,12,13,15,22,23, 3'-idT at 24]

Immunoglobulin E (IgE) (Homo sapiens), P01854-1, sequence (P01854 other isoform, or with tags, fused parts or gaps): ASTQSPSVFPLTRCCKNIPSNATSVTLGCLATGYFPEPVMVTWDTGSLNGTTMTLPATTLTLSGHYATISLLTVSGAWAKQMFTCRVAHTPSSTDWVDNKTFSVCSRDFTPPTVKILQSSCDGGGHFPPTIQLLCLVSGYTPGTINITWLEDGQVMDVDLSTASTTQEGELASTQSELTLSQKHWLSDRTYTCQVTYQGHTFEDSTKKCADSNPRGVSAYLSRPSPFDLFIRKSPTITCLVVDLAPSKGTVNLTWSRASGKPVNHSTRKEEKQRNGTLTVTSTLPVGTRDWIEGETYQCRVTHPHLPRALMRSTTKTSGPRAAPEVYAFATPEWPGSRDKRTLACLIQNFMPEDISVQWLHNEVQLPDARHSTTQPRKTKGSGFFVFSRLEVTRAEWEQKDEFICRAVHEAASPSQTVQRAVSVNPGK

Work on AGCCUGGGGACCCAUGGGGGGCU [ARC1251] yielded a Kd of 7 nM.
